Results on two substances are retold here after patent US20150104459A1.

For orientation: EC50 means the concentration needed to bring the measured effect to its halfway point.

In assay [1] the target is M2 protein of influenza A/Wisconsin/67/05 (H3N2), on inactivated whole virions (influenza A virus A/Wisconsin/67/05 (H3N2)). The assay is described as follows: ELISA, positive control antibody on inactivated whole virions. (ELISA stands for enzyme-linked immunosorbent assay.)
Assay [2] concerns the target 23mer synthetic M2e peptide of A/Fort Worth/1/50 (influenza A virus A/Fort Worth/1/50 (H1N1)). The assay is described as follows: ELISA, 23mer M2e peptide coated at 1 ug/ml.

TCN-032 (8I10) (antibody), sequence (VH): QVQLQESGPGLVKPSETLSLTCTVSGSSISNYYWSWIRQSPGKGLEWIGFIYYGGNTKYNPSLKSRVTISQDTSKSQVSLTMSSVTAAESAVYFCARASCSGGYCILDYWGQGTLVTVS
TCN-032 (8I10) (antibody), sequence (VL): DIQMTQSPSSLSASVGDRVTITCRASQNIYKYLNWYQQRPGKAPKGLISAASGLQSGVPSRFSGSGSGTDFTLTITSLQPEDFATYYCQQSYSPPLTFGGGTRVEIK

In turn, TCN-032 (8I10) (antibody) gave an ELISA virus binding (OD450) in assay [1] of 3.62 OD450. For “chimeric mouse V-region/human IgG1 kappa 14C2 antibody”, in assay [2], the EC50 was found to be 0.01 µg/mL.
